Key:
CBP HAT domain [1] = molecular target: T1, CBP HAT domain (UniProt Q92793 1319-1710); assay: EMSA; 20 nM RNA, 0.05-0.6 uM protein, yeast tRNA 0.1 mg/ml; 20 mM HEPES, 40 mM KCl, 1 mM EDTA, 0.2 mM DTT, 0.1 mg/ml BSA, 0.1% Tween-20, 20% glycerol, 0.1 mg/ml yeast tRNA; pH not stated; 1 h at 37 C; 1% agarose, 0.5x TBE; conditions: protein: commercial; tags: GST; label: fluorescein-12-UTP, internal
CBP bromodomain = CBP bromodomain (UniProt Q92793 1081-1197); assay: EMSA; same concentrations as HAT (up to 0.6 uM); no appreciable binding; 20 mM HEPES, 40 mM KCl, 1 mM EDTA, 0.2 mM DTT, 0.1 mg/ml BSA, 0.1% Tween-20, 20% glycerol, 0.1 mg/ml yeast tRNA; pH not stated; 1 h at 37 C; 1% agarose, 0.5x TBE; conditions: protein: commercial; tags: GST; label: fluorescein-12-UTP, internal
Sequence of CBP bromodomain (Q92793 1081-1197): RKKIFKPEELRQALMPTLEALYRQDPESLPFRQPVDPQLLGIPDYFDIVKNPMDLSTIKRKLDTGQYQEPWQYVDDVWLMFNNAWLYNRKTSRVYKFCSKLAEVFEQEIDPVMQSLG

CBP HAT domain [2] = molecular target: T1, CBP HAT domain; assay: EMSA; 20 nM RNA, 0.05-0.6 uM protein, yeast tRNA 0.1 mg/ml; almost complete binding at 0.6 uM; 20 mM HEPES, 40 mM KCl, 1 mM EDTA, 0.2 mM DTT, 0.1 mg/ml BSA, 0.1% Tween-20, 20% glycerol, 0.1 mg/ml yeast tRNA; pH not stated; 1 h at 37 C; 1% agarose, 0.5x TBE; conditions: protein: commercial; tags: GST; label: fluorescein-12-UTP, internal
CBP HAT domain [3] = molecular target: T1, CBP HAT domain; assay: competition; against labeled eRNA1; competitor up to 5 uM; 20 mM HEPES, 40 mM KCl, 1 mM EDTA, 0.2 mM DTT, 0.1 mg/ml BSA, 0.1% Tween-20, 20% glycerol, 0.1 mg/ml yeast tRNA; pH not stated; 1 h at 37 C; 1% agarose, 0.5x TBE; conditions: protein: commercial; tags: GST

T1 sequence (Q92793 1319-1710): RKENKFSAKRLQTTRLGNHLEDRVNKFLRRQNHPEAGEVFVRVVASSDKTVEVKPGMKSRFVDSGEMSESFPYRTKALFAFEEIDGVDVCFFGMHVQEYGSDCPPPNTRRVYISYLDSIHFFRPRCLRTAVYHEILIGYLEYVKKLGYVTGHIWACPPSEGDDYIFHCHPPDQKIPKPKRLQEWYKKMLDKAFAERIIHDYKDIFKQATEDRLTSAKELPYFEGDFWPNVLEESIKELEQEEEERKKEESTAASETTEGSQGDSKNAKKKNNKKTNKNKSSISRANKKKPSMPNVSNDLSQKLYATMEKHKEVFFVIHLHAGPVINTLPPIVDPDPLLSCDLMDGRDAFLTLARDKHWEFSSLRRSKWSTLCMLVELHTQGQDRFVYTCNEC

B1: ctrl RNA (150), labeled (ssRNA)
RNA: GCUGCCAUCUGUCACCUAACAGGAGGAGGCUGAGAGUUACUUGUCUGGGAGACUUGCUGAGAGACAAGGACAGGCCCUGGAUCUCCUCAAUGUAGCCUGUCCGGGACUAUUCAGUUCUAUGAGGGACUUCUUAGAGAAACUAGGGUGCCC
binding result (CBP HAT domain [1]): binds

B2: Fos eRNA1 (150 nt), labeled (ssRNA)
RNA: UUCGGCGGAACCCAAUACAUGGAGUCUGGAGGUUAAGAGACUGCCAAGAAGUCAAGCGGAAAGAGAAACAAGAACGGGAAAGGAAGCUUGGCUGUUCUGUGGGCUUUGGGGCUUUGACCUUGUCUGGAAGCCAUAAACUCGGCUCGAGGG
binding result (CBP bromodomain): no binding
binding result (CBP HAT domain [2]): binds

B3: Fos eRNA1 (150 nt), unlabeled competitor (ssRNA)
RNA: B2 RNA
binding result (CBP HAT domain [3]): binds

B4: Fos eRNA3 (150), labeled (ssRNA)
RNA: CCUUACUAGCCGCUGAGCGUGCAGGCGUUGGGGACACUUUACACCGGGUUCAGAUUCCAGGGCCGCCACUCCAGGUGGAUAAUGAAGUACAGGCCAUAGUCUUUCUGUGCCCUAGACUGUCAUCUAUAACGUAAGCAUACUAGCAAGACC
binding result (CBP HAT domain [1]): binds
